From the supplement of paper PMC9112550, “Optimization of the antimicrobial peptide Bac7 by deep mutational scanning” (BMC Biology, 2022)

Test system: Escherichia coli TOP10
Experiment: shrunken log2 fold change of peptide-encoding DNA abundance (4.5 h post-induction vs induction); higher = less antimicrobial activity (less host growth inhibition)
Conditions: time post-induction: 4.5 h; library: site-saturation at positions 5, 18, 19, 20
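Also: peptides expressed intracellularly from a pBAD plasmid library in pooled LB shake-flask culture, induced with 0.3% L-arabinose, DNA abundance read by NGS, three biological replicates, DESeq2 with apeglm shrinkage.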

| Sequence | shrunken log2 fold change |
| --- | --- |
| RRIRVRPPRLPRPRPRPFVHPRP | -0.17 |
| RRIRKRPPRLPRPRPRPCHRPRP | 0.00781 |
| RRIRHRPPRLPRPRPRPISSPRP | -0.202 |
| RRIRRRPPRLPRPRPRPCGKPRP | 0.254 |
| RRIRPRPPRLPRPRPRPVQEPRP | -0.0759 |
| RRIRHRPPRLPRPRPRPEFSPRP | -0.246 |
| RRIRHRPPRLPRPRPRPFEIPRP | -0.0931 |
| RRIRSRPPRLPRPRPRPDWQPRP | -0.162 |
| RRIRKRPPRLPRPRPRPSLYPRP | 0.0834 |
| RRIRQRPPRLPRPRPRPTVSPRP | -0.14 |
| RRIRDRPPRLPRPRPRPNHMPRP | -0.776 |
| RRIRIRPPRLPRPRPRPWIGPRP | -0.0616 |
| RRIRKRPPRLPRPRPRPWITPRP | -0.105 |
| RRIRSRPPRLPRPRPRPRFVPRP | 0.129 |
| RRIRKRPPRLPRPRPRPYPNPRP | 0.0382 |
| RRIRDRPPRLPRPRPRPNYTPRP | -0.771 |
| RRIRQRPPRLPRPRPRPPCCPRP | 0.0763 |
| RRIRERPPRLPRPRPRPVGRPRP | 0.233 |
| RRIRLRPPRLPRPRPRPNRCPRP | -0.231 |
| RRIRIRPPRLPRPRPRPGYAPRP | -0.192 |
| RRIRPRPPRLPRPRPRPMELPRP | -0.00106 |
| RRIRHRPPRLPRPRPRPQYGPRP | -0.0192 |
| RRIRPRPPRLPRPRPRPTQFPRP | 0.274 |
| RRIRWRPPRLPRPRPRPGMYPRP | 0.0165 |
| RRIRMRPPRLPRPRPRPHFMPRP | -0.127 |

| Sequence | shrunken log2 fold change |
| --- | --- |
| RRIRLRPPRLPRPRPRPNWLPRP | 0.0723 |
| RRIRNRPPRLPRPRPRPDKVPRP | -0.00145 |
| RRIRLRPPRLPRPRPRPGPPPRP | 0.445 |
| RRIRARPPRLPRPRPRPNDCPRP | 0.0748 |
| RRIRVRPPRLPRPRPRPAHYPRP | -0.113 |
| RRIRRRPPRLPRPRPRPWIPPRP | -0.129 |
| RRIRDRPPRLPRPRPRPIIHPRP | -0.483 |
| RRIRRRPPRLPRPRPRPMHEPRP | 0.213 |
| RRIRCRPPRLPRPRPRPLYNPRP | -1.22 |
| RRIRPRPPRLPRPRPRPRDVPRP | 0.0755 |
| RRIRGRPPRLPRPRPRPSGRPRP | 0.522 |
| RRIRMRPPRLPRPRPRPLPIPRP | -0.0881 |
| RRIRARPPRLPRPRPRPFKWPRP | -0.176 |
| RRIRFRPPRLPRPRPRPGFKPRP | 0.122 |
| RRIRQRPPRLPRPRPRPSVRPRP | -0.309 |
| RRIRMRPPRLPRPRPRPCWFPRP | -0.0997 |
| RRIRQRPPRLPRPRPRPSKVPRP | -0.133 |
| RRIRIRPPRLPRPRPRPPIAPRP | -0.109 |
| RRIRGRPPRLPRPRPRPYCCPRP | -0.0424 |
| RRIRFRPPRLPRPRPRPFWGPRP | 0.0215 |
| RRIRCRPPRLPRPRPRPFFYPRP | -0.32 |
| RRIRTRPPRLPRPRPRPECDPRP | -0.134 |
| RRIRCRPPRLPRPRPRPICWPRP | 0.202 |
| RRIRRRPPRLPRPRPRPTESPRP | 0.121 |
| RRIRHRPPRLPRPRPRPFDYPRP | -0.0282 |

| Sequence | shrunken log2 fold change |
| --- | --- |
| RRIRQRPPRLPRPRPRPIEMPRP | -0.0847 |
| RRIRIRPPRLPRPRPRPWYDPRP | -0.0891 |
| RRIRHRPPRLPRPRPRPSQLPRP | -0.00148 |
| RRIRCRPPRLPRPRPRPRLLPRP | 0.159 |
| RRIRMRPPRLPRPRPRPEKFPRP | -0.000921 |
| RRIRFRPPRLPRPRPRPYLVPRP | -0.423 |
| RRIRFRPPRLPRPRPRPNMTPRP | -0.43 |
| RRIRERPPRLPRPRPRPFAAPRP | 0.229 |
| RRIRVRPPRLPRPRPRPFCAPRP | 0.00539 |
| RRIRVRPPRLPRPRPRPNPQPRP | 0.000771 |
| RRIRIRPPRLPRPRPRPNMEPRP | -0.509 |
| RRIRFRPPRLPRPRPRPTPNPRP | 0.296 |
| RRIRCRPPRLPRPRPRPRMQPRP | 0.349 |
| RRIRTRPPRLPRPRPRPQKYPRP | -0.263 |
| RRIRQRPPRLPRPRPRPKQCPRP | -0.288 |
| RRIRNRPPRLPRPRPRPNNQPRP | -0.703 |
| RRIRHRPPRLPRPRPRPACRPRP | -0.141 |
| RRIRTRPPRLPRPRPRPSNCPRP | -0.414 |
| RRIRGRPPRLPRPRPRPHYTPRP | -0.379 |
| RRIRLRPPRLPRPRPRPLKEPRP | 0.00325 |
| RRIRVRPPRLPRPRPRPETAPRP | 0.406 |
| RRIRERPPRLPRPRPRPSAPPRP | 0.18 |
| RRIRIRPPRLPRPRPRPCCEPRP | -0.731 |
| RRIRIRPPRLPRPRPRPIGIPRP | -0.0608 |
| RRIRMRPPRLPRPRPRPMVEPRP | 0.0167 |
